A word on the Kd: it is the equilibrium constant for the complex coming apart. In general, koff refers to the first-order rate constant of dissociation. The term kon denotes a measure of how fast the partners come together.

Numbering of substitutions follows the chain as printed. Names may count otherwise.

Three molecules from US20250257338A1 (JCR PHARMACEUTICALS, published 2025) can be followed below.

In assay [1] the target is T1, human mannose-6-phosphate receptor (cation-independent) domain 9 recombinant protein with C-terminal … (human, UniProt P11717 1219-1364).
T1 construct: Loaded on the Ni-NTA biosensor; also called human M6PR; M6PR
T1 sequence (P11717 other isoform, or with tags, fused parts or gaps limits assumed): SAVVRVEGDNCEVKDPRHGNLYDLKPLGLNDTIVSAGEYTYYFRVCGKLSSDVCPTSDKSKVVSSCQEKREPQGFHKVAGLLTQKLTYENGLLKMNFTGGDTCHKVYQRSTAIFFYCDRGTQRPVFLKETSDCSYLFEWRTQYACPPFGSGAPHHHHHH
The assay can be described thus: BLI (Octet RED96), M6PR domain 9 (His tag) on Ni-NTA biosensor, 1:1 model. The procedure: (§1) As the human M6PR, there was used a protein having the amino acid sequence represented by SEQ ID NO: 42, in which restriction enzyme-derived amino acids were added to both ends of the amino acid sequence corresponding to domain 9 from valine at the 1219th position to phenylalanine at the 1364th position from the N-terminus side in the amino acid sequence of a cation-independent mannose-6-phosphate receptor represented by SEQ ID NO: 41, and a histidine tag was further added to the C-terminus thereof.
(§2) In addition, human M6PR was adjusted to a concentration of […] with HBS-P+ to obtain an M6PR (His tag) solution.
(§3) The sample solution for M6PR affinity measurement was added to a 96-well plate, black (Greiner Bio-One International GmbH) at 200 μL/well. The M6PR (His tag) solution was added to predetermined wells at 200 μL/well. HBS-P+ was added to wells for baseline, dissociation, and washing at 200 μL/well. 10 mM Glycine-HCl (pH 1.7) was added to wells for regeneration at 200 μL/well. 0.5 mM NiCl₂ solution was added to wells for activation at 200 μL/well. This plate and a biosensor (Biosensor/Ni-NTA, ForteBio) were placed at predetermined positions in the Octet RED96.
For orientation: In BLI a coated tip is dipped into the sample, and binding shifts an interference pattern.

The target in assay [2] is T2, human TfR extracellular region with N-terminal histidine tag, hTfR-ECD (His tag) (human, UniProt P02786 87-760).
T2 construct: Loaded on the Ni-NTA biosensor in the BLI assay; 760 is the known length of human TfR, not a printed number; not shown: histidine tag at the N-terminus
T2 sequence (P02786 other isoform, or with tags, fused parts or gaps): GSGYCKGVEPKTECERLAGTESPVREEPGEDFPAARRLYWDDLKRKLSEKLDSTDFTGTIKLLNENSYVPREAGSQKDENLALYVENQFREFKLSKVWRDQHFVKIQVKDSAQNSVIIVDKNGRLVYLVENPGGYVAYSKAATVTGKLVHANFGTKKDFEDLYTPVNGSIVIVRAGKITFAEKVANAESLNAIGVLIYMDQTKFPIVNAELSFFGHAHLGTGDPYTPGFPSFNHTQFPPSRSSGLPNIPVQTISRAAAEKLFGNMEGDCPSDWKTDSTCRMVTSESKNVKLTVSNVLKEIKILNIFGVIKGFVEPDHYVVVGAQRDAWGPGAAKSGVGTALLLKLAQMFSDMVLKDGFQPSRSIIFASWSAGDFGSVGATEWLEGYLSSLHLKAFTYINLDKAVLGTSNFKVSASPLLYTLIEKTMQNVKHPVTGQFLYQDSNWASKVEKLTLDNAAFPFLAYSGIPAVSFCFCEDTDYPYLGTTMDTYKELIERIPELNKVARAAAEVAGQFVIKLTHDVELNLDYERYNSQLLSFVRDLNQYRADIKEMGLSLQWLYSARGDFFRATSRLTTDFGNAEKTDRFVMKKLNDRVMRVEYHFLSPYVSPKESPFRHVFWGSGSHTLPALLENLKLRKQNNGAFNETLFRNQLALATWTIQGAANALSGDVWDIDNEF
Kind of assay: BLI (Octet RED96), hTfR-ECD (His tag) on Ni-NTA biosensor, 1:1 model. Here is the method: In addition, hTfR was adjusted to a concentration of 25 ng/ml, using HBS-P+ (1% BSA) to obtain an hTfR-ECD (His tag) solution.
The sample solution for hTfR affinity measurement was added to a 96-well plate, black (Greiner Bio-One International GmbH) at 200 μL/well. The hTfR-ECD (His tag) solution was added to predetermined wells at 200 μL/well. HBS-P+ (1% BSA) was added to wells for baseline, dissociation, and washing at 200 μL/well. 10 mM Glycine-HCl (pH 1.7) was added to wells for regeneration at 200 μL/well. 0.5 mM NiCl₂ (1% BSA) solution was added to wells for activation at 200 μL/well. This plate and a biosensor (Biosensor/Ni-NTA, ForteBio) were placed at predetermined positions in the Octet RED96.
Note that the measurement was carried out at a temperature of 25 to 30° C.

Assay [3] deals with T1, human mannose-6-phosphate receptor …. Kind of assay: BLI (Octet RED96), M6PR (His tag) on Ni-NTA biosensor. The procedure: as §1, §2, §3

B1: Fab-IDS (WT), fusion protein of wild-type hIDS and an anti-hTfR (Fab) antibody (Fab)
heavy: EVQLVQSGAEVKKPGESLKISCKGSGYSFMNYWLGWVRQMPGKGLEWMGDIYPGGDYPTYSEKFKVQVTISADKSISTAYLQLSSLKASDTAMYYCARSGNYDEVAYWGQGTLVTVSSASTKGPSVFPLAPSSKSTSGGTAALGCLVKDYFPEPVTVSWNSGALTSGVHTFPAVLQSSGLYSLSSVVTVPSSSLGTQTYICNVNHKPSNTKVDKKVEPKSCDKTHTGGGGSGGGGSGGGGSSETQANSTTDALNVLLIIVDDLRPSLGCYGDKLVRSPNIDQLASHSLLFQNAFAQQAVCAPSRVSFLTGRRPDTTRLYDFNSYWRVHAGNFSTIPQYFKENGYVTMSVGKVFHPGISSNHTDDSPYSWSFPPYHPSSEKYENTKTCRGPDGELHANLLCPVDVLDVPEGTLPDKQSTEQAIQLLEKMKTSASPFFLAVGYHKPHIPFRYPKEFQKLYPLENITLAPDPEVPDGLPPVAYNPWMDIRQREDVQALNISVPYGPIPVDFQRKIRQSYFASVSYLDTQVGRLLSALDDLQLANSTIIAFTSDHGWALGEHGEWAKYSNFDVATHVPLIFYVPGRTASLPEAGEKLFPYLDPFDSASQLMEPGRQSMDLVELVSLFPTLAGLAGLQVPPRCPVPSFHVELCREGKNLLKHFRFRDLEEDPYLPGNPRELIAYSQYPRPSDIPQWNSDKPSLKDIKIMGYSIRTIDYRYTVWVGFNPDEFLANFSDIHAGELYFVDSDPLQDHNMYNDSQGGDLFQLLMP
light: DIVMTQTPLSLSVTPGQPASISCRSSQSLVHSNGNTYLHWYLQKPGQSPQLLIYKVSNRFSGVPDRFSGSGSGTDFTLKISRVEAEDVGVYYCSQSTHVPWTFGQGTKVEIKRTVAAPSVFIFPPSDEQLKSGTASVVCLLNNFYPREAKVQWKVDNALQSGNSQESVTEQDSKDSTYSLSSTLTLSKADYEKHKVYACEVTHQGLSSPVTKSFNRGEC
modifications: N-linked sugar chains containing mannose-6-phosphate (M6P) on the asparagines at positions 221 and 255 of the hIDS portion (numbering of SEQ ID NO: 1)
notes: Humanized anti-hTfR Fab; Expressed in ExpiCHO cells
Regarding B1, in assay [1], the Kd was 2.32 nM, the koff stood at 0.000586 s⁻¹ and the kon turned out to be 253000 M⁻¹ s⁻¹. In assay [2], this molecule showed a Kd of 0.67 nM, a koff of 0.000331 s⁻¹ and a kon of 494000 M⁻¹ s⁻¹.

B2: Fab-IDS (m1), fusion protein of hIDS mutant muhIDS-1 (T223A, S257A) and an anti-hTfR (Fab) antibody (Fab)
heavy: B1 heavy with T464A, S498A
light: B1 light
For the molecule B2, the binding result in assay [3] is listed as “no binding”. For the same molecule, in assay [2], binding was put at a Kd of 0.678 nM, the koff stood at 0.000331 s⁻¹ and the kon came to 489000 M⁻¹ s⁻¹.

B3: Fab-IDS (m2), fusion protein of hIDS mutant muhIDS-2 (N221Q, N255Q) and an anti-hTfR (Fab) antibody (Fab)
heavy: B1 heavy with N462Q, N496Q
light: B1 light
On to B3, for which the binding result in assay [3] was “no binding”. In assay [2], this molecule came in with a Kd of 0.661 nM, a koff of 0.00031 s⁻¹ and an association rate constant (kon) of 469000 M⁻¹ s⁻¹.
